Measured values taken from patent US20230391852A1 (US Dept. of Health and Human Services, published 2023).

B1: 1B5 VHH-hFc (Fc fusion)
chain: DVQLVESGGGSVQAGGSLRLSCTGSRYTYSTYCMGWFRQAPGKEEEAVAIINSGGGEPYYGDSVKGRFTISQDRAKNTVYLQMDGLQPDDTAIYYCVAADSHNSRCYLGRSYVNYWGQGTQVTVSS
notes: also called 1B5-hFc; NCI-CoV-1B5 VHH-hFc fusion protein
B2: 8A4 VHH-hFc (Fc fusion)
chain: EVQLVESGGGLVQPGESLRLSCEASGFTFSSVYMSWVRQAPGKGLEWISTIHPAGGSTYYADSMKDRFTISRDNAKNTLYLQMNSLKSEDTALYYCIIEALSGYRGPGTQVTVSS
notes: also called 8A4-hFc; NCI-CoV-8A4 VHH-hFc fusion protein
B3: 7A3 VHH-hFc (Fc fusion)
chain: QVQLVESGGGSVQPGGSLRLSCVVSGYTSSSRYMGWFRQVPGKGLEWVSGIKRDGTNTYYADSVKGRFTISQDNAKNTVYLQMNSLKPEDTAMYYCAAGSWYNQWGYSMDYWGKGTQVTVSS
notes: also called 7A3-hFc; NCI-CoV-7A3 VHH-hFc fusion protein
B4: 2F7 VHH-hFc (Fc fusion)
chain: QVKLEESGGGSVQSGGSLRLSCTVSRDTNTNINRCMGWFRQAPGKGLETVATINRDGTNTYYTDAVKGRFTISQDNVKNTVYLQMNNLTPEDTGTYICNAMGRGSGSRCDNWDPNYWGQGTQVTVSS
notes: also called 2F7-hFc; NCI-CoV-2F7 VHH-hFc fusion protein
B5: 8A2 VHH-hFc (Fc fusion)
chain: AVQLVDSGGGSVQAGGSLRLSCAASGYTYSICTMGWYRQAPGEGLEWVSGINADGSNTHYTDSVKGRFTISRDNAKKTLYLQMNSLKPEDTAIYYCAAHGTYDKYAPCGGFAGTYTYWGQGTQVTVSS
notes: also called NCI-CoV-8A2 VHH-hFc
B6: 1H6 VHH-hFc (Fc fusion)
chain: AVQLVDSGGGSVQAGGSLNLSCVASGTTLRNGCMAWFRQVPGKEREVVAIIIRATSYTDYADSVKGRFTISQDNAKNTVYLQMKSLTPEDTATYYCAATLYRVNCAKREFDKWGQGTQVTVSS
notes: also called 1H6-hFc; NCI-CoV-1H6 VHH-hFc fusion protein

Biological target: SARS-CoV-2 S protein trimer expressed on human A431 cells (SARS-CoV-2, UniProt P0DTC2 14-1273)
Assay: flow cytometry on A431 cells expressing SARS-CoV-2 S (A431-CoV-2-S)

Row | Binder | percent of cells right of the dashed gate line
1 | B1 | 99.1%
2 | B2 | 99.4%
3 | B3 | 99.5%
4 | B4 | 99.3%
5 | B5 | 98.7%
6 | B6 | 99.5%
